Consider ten substances from paper PMC10457771.

Values joined by “and” are separate entries in the source; they are usually repeats but may differ in a detail not shown here. Equal entries are not always repeated.

Assay [1] deals with tail tube protein, gp7 (Vibrio phage XM1). Briefly: cryo-EM structure; purified XM1 virions in SM buffer; 6-fold-symmetric reconstruction of the distal part of the extended tail (baseplate, part of tail tube and sheath), 3.2Å; interfaces analysed with PISA.
Assay [2] addresses minor capsid protein (decoration protein, Dec), gp53 (Vibrio phage XM1). The assay is described as follows: cryo-EM structure; purified XM1 virions in SM buffer; icosahedrally averaged reconstruction of the capsid, 3.2Å.
The target in assay [3] is collar spike protein, gp40 (Vibrio phage XM1). Briefly: cryo-EM structure; purified XM1 virions in SM buffer; 6-fold-symmetric reconstruction of the portal and neck region and 12-fold-symmetric reconstruction of the portal, 3.6Å; interfaces analysed with PISA.
In assay [4] the target is tail sheath protein, gp6 (Vibrio phage XM1). Briefly: cryo-EM structure; purified XM1 virions in SM buffer; 6-fold-symmetric reconstruction of the distal part of the extended tail (baseplate, part of tail tube and sheath), 3.2Å; interfaces analysed with PISA.
For assay [5] the target is unchanged. Briefly: cryo-EM structure; empty XM1 particles with contracted tail sheath (post-infection form); 6-fold-symmetric reconstruction, 9.1Å; models of the extended state fitted (Situs ddforge, Coot).
Assay [6] concerns the target hexameric head completion protein, gp4 (Vibrio phage XM1). Briefly: cryo-EM structure; purified XM1 virions in SM buffer; 6-fold-symmetric reconstruction of the portal and neck region and 12-fold-symmetric reconstruction of the portal, 3.6Å; interfaces analysed with PISA.
In assay [7] the target is central baseplate organization protein, gp11 (Vibrio phage XM1). Briefly: cryo-EM structure; purified XM1 virions in SM buffer; 6-fold-symmetric reconstruction of the distal part of the extended tail (baseplate, part of tail tube and sheath), 3.2Å; interfaces analysed with PISA.
Assay [8] addresses dodecameric head completion protein, gp1 (Vibrio phage XM1). The assay is described as follows: cryo-EM structure; purified XM1 virions in SM buffer; 6-fold-symmetric reconstruction of the portal and neck region and 12-fold-symmetric reconstruction of the portal, 3.6Å; interfaces analysed with PISA.
For assay [9], the target named is tail terminator protein, gp5 (Vibrio phage XM1). Described as above.
In assay [10] the target is major capsid protein (MCP), gp54 (Vibrio phage XM1). The assay is described as follows: cryo-EM structure; purified XM1 virions in SM buffer; icosahedrally averaged reconstruction of the capsid, 3.2Å.
The target of assay [11] is portal protein, gp49 (Vibrio phage XM1). The assay is described as follows: cryo-EM structure; purified XM1 virions in SM buffer; 6-fold-symmetric reconstruction of the portal and neck region and 12-fold-symmetric reconstruction of the portal, 3.6Å; interfaces analysed with PISA.

As for “tail tube protein, gp7 (natural protein)”, the stoichiometry N (in general, the number of molecules, sites or subunits per partner or assembly) in assay [1] was 6. The substance “minor capsid protein (decoration protein, Dec), gp53 (natural protein)” showed a stoichiometry N in assay [2] of 3. Substance “collar spike protein, gp40 (natural protein)” showed a stoichiometry N in assay [3] of 3. As to “tail sheath protein, gp6 (natural protein)”, the stoichiometry N in [4] and in [5] was 6 throughout. In assay [6], “hexameric head completion protein, gp4 (natural protein)” yielded a stoichiometry N of 6. Substance “central baseplate organization protein, gp11 (natural protein)” yielded a stoichiometry N in assay [7] of 6. Substance “dodecameric head completion protein, gp1 (natural protein)” gave a stoichiometry N in assay [8] of 12.

For “tail terminator protein, gp5 (natural protein)”, the stoichiometry N in [9] is 6. For “major capsid protein (MCP), gp54 (natural protein)”, in assay [10], the stoichiometry N is 6 and 5.

Substance portal protein, gp49 (natural protein) yielded a stoichiometry N in [11] of 12.
